Results from PMC10066393, “Structural insights into the mechanism of leptin receptor activation” (Nature Communications, 2023).
One block for each molecule: values may come before it.

What was measured:
[1] = target: Myc-tagged full-length human LepR, wild type (human) (UniProt P48357)
[2] = target: Myc-tagged full-length human LepR, wild type (human) (UniProt P48357); remark: listed apart in the source
[3] = target: mouse LepR^D1-D7-zip (Mus musculus | not stated) (UniProt P48356)
mouse leptin [4] = target: T1, mouse leptin (Mus musculus, UniProt P41160 22-167); experiment: cryo-EM structure; SEC-purified leptin–LepR-zip complex cross-linked with 1 mM BS3, 1–2 mg/ml in PBS, 0.01% fluorinated octyl maltoside; single particle cryo-EM, AlphaFold models docked and refined; conditions: both partners purified
T1 construct: leptin, Mus musculus, produced in E. coli; Two leptin molecules stand in the 2:2 complex with the zippered LepR dimer; also called M. musculus leptin; source: Escherichia coli produced

mouse leptin [5] = target: T1, mouse leptin; experiment: SEC; mouse leptin incubated with purified LepR-zip overnight at 4 °C at a leptin:LepR ratio of 4:1; Superdex 200 in PBS pH 7.2; co-elution; conditions: both partners purified

Myc-tagged full-length human LepR, wild type (human), sequence (P48357 22-1165): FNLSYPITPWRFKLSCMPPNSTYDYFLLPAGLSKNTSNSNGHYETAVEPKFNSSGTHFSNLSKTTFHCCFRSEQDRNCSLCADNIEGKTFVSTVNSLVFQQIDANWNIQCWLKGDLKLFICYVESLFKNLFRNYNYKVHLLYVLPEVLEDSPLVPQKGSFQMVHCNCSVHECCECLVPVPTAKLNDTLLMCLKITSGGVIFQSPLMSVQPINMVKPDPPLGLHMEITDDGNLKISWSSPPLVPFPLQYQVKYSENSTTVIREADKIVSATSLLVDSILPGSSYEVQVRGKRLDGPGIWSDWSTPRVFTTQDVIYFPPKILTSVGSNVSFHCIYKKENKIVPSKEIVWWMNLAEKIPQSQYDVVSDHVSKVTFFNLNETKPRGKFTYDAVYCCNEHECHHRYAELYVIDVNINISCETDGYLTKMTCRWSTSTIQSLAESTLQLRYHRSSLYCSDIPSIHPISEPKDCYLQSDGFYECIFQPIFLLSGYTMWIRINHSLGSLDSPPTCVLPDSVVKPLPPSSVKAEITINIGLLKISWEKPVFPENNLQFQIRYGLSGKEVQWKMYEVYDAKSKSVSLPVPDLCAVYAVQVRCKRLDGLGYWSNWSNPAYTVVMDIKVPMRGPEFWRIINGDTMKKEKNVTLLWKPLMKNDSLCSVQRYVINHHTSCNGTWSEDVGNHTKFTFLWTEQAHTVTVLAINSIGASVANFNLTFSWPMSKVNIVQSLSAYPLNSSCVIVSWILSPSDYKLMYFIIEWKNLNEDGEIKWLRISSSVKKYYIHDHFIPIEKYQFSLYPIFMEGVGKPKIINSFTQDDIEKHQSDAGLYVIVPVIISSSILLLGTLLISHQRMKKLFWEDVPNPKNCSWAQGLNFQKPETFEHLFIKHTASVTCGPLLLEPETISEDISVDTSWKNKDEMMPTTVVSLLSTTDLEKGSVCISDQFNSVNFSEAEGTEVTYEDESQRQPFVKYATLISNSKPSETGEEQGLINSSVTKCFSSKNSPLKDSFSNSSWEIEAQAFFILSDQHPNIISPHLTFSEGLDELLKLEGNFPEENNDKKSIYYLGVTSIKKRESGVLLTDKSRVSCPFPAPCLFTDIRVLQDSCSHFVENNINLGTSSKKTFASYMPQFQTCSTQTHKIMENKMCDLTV
T1 sequence (P41160 22-167): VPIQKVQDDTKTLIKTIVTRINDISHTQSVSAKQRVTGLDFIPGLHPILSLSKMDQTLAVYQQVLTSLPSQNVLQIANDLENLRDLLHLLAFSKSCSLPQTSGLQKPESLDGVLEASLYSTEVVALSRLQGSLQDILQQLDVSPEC

- phospho-STAT3 left, immunoblots, HEK-293T cells stably expressing hLepR, 10 nM WT leptin plus the variant, relative to WT leptin alone (% of WT leptin alone) [1]: 50
- reduction of phospho-SHP2 and phospho-ERK, immunoblots, HEK-293T cells stably expressing hLepR, 10 nM WT leptin plus the variant, 20 min [1]: 90 % reduction
Molecule: human leptin D23L/S117N (ligand)

- activation of ERK in cells expressing mouse LepR (the whole receptor on cells, not the zip construct) [3]: 5%
- activation of SHP2 in cells expressing mouse LepR (the whole receptor on cells, not the zip construct) [3]: 20%
- activation of STAT3 in cells expressing mouse LepR (the whole receptor on cells, not the zip construct) [3]: 60%
Molecule: leptin S117A used on cells expressing mouse LepR (from UniProt P41160 22-167) (ligand)

- binding result (mouse leptin [4]): binds
B1: mouse LepR^D3-D7-zip (receptor)
chain: DVVYFPPKILTSVGSNASFHCIYKNENQIISSKQIVWWRNLAEKIPEIQYSIVSDRVSKVTFSNLKATRPRGKFTYDAVYCCNEQACHHRYAELYVIDVNINISCETDGYLTKMTCRWSPSTIQSLVGSTVQLRYHRRSLYCPDSPSIHPTSEPKNCVLQRDGFYECVFQPIFLLSGYTMWIRINHSLGSLDSPPTCVLPDSVVKPLPPSNVKAEITVNTGLLKVSWEKPVFPENNLQFQIRYGLSGKEIQWKTHEVFDAKSKSASLLVSDLCAVYVVQVRCRRLDGLGYWSNWSSPAYTLVMDVKVPMRGPEFWRKMDGDVTKKERNVTLLWKPLTKNDSLCSVRRYVVKHRTAHNGTWSEDVGNRTNLTFLWTEPAHTVTVLAVNSLGASLVNFNLTFSWPMSKVSAVESLSAYPLSSSCVILSWTLSPDDYSLLYLVIEWKILNEDDGMKWLRIPSNVKKFYIHDNFIPIEKYQFSLYPVFMEGVGKPKIINGFTKDAIDKQQNDAGEELLSKNYHLENEVARLKK
notes: leptin receptor (LepR), Mus musculus, domains D3-D7, residues 330-839; GCN4 leucine zipper, C-terminal, stands in place of the transmembrane domain; Secreted with an N-terminal HA signal peptide from the vector pD649; Dimerised by the leucine zipper; source: Expi293F, transiently transfected, purified from supernatant (Ni-NTA, SEC)

More lines, now with the values behind:

Molecule: human leptin K33A/Q34A/K35A (ligand)
- maximal phospho-STAT3 response, dose-response by phospho-flow cytometry, LepR-expressing HEK 293T cells, percent of WT leptin (% of WT leptin) [2]: 75

Molecule: human leptin S117N (ligand)
- maximal phospho-STAT3 response, dose-response by phospho-flow cytometry, LepR-expressing HEK 293T cells, percent of WT leptin (% of WT leptin) [2]: 45

B2: mouse LepR^D1-D7-zip (receptor)
chain: NLAYPISPWKFKLFCGPPNTTDDSFLSPAGAPNNASALKGASEAIVEAKFNSSGIYVPELSKTVFHCCFGNEQGQNCSALTDNTEGKTLASVVKASVFRQLGVNWDIECWMKGDLTLFICHMEPLPKNPFKNYDSKVHLLYDLPEVIDDSPLPPLKDSFQTVQCNCSLRGCECHVPVPRAKLNYALLMYLEITSAGVSFQSPLMSLQPMLVVKPDPPLGLHMEVTDDGNLKISWDSQTMAPFPLQYQVKYLENSTIVREAAEIVSATSLLVDSVLPGSSYEVQVRSKRLDGSGVWSDWSSPQVFTTQDVVYFPPKILTSVGSNASFHCIYKNENQIISSKQIVWWRNLAEKIPEIQYSIVSDRVSKVTFSNLKATRPRGKFTYDAVYCCNEQACHHRYAELYVIDVNINISCETDGYLTKMTCRWSPSTIQSLVGSTVQLRYHRRSLYCPDSPSIHPTSEPKNCVLQRDGFYECVFQPIFLLSGYTMWIRINHSLGSLDSPPTCVLPDSVVKPLPPSNVKAEITVNTGLLKVSWEKPVFPENNLQFQIRYGLSGKEIQWKTHEVFDAKSKSASLLVSDLCAVYVVQVRCRRLDGLGYWSNWSSPAYTLVMDVKVPMRGPEFWRKMDGDVTKKERNVTLLWKPLTKNDSLCSVRRYVVKHRTAHNGTWSEDVGNRTNLTFLWTEPAHTVTVLAVNSLGASLVNFNLTFSWPMSKVSAVESLSAYPLSSSCVILSWTLSPDDYSLLYLVIEWKILNEDDGMKWLRIPSNVKKFYIHDNFIPIEKYQFSLYPVFMEGVGKPKIINGFTKDAIDKQQNDAGEELLSKNYHLENEVARLKK
notes: leptin receptor (LepR), Mus musculus, complete extracellular domain D1-D7, residues 23-839; GCN4 leucine zipper, C-terminal, stands in place of the transmembrane domain; Secreted with an N-terminal HA signal peptide from the vector pD649; Dimerised by the leucine zipper; source: Expi293F, transiently transfected, purified from supernatant (Ni-NTA, SEC)
- binding result (mouse leptin [5]): binds
